Reference: the RNAGym collection of RNA variant scans (doi:10.1021/acssynbio.7b00057)

B1: Pistol ribozyme (parent)
chain: GGGUCGUUGUUCCAUAAUCGCGUGGAUAUGGCACGCAAGUUUCUACCGGGCACCGUAAAUGUCCGACUGGAGCCGUUCGGGCGGCUAUAAACAGACCUCAGGCCCGAAGCGUGGCGGCACCUGCCGCCGGUGGUAAAAAAGAUCGGAAGAGCACACGUCU

Variants of: B1
Assay: aptazyme ON/OFF ratio, guanine; higher = stronger switching; co-transcriptional cleavage with and without guanine

Variant | aptazyme ON/OFF ratio
U7C U8G G9A U10G U11G C12G C13A | 1.42
U7C U8G G9A U10G U11G C12G C13G | 1.03
U7C U8G G9A U10G U11G C12G C13U | 1.24
U7C U8G G9A U10C U11G C12A C13U | 1.14
U7C U8G G9A U10C U11G C12A C13A | 1.12
U7C U8G G9A U10C U11G C12A C13G | 1.13
U7C U8G G9A U10G U11G C12A C13A | 1.11
U7C U8G G9A U10G U11G C12A C13U | 1.12
U7C U8G G9A U10G U11G C12A C13G | 1.24
U7C U8G G9A U11G C12G C13U | 1.18
U7C U8G G9A U11G C12G C13A | 1.16
U7C U8G G9A U11G C12G C13G | 1.27
U7C U8G G9A U10G U11A C12A C13U | 1.22
U7C U8G G9A U10G U11A C12A C13G | 1.3
U7C U8G G9A U10G U11A C12A C13A | 1.18
U7C U8G G9A U11C C12G C13U | 1.1
U7C U8G G9A U11C C12G C13G | 1.17
U7C U8G G9A U11C C12G C13A | 1.05
U7C U8G G9A U10G U11G C12A | 1.33
U7C U8G G9A U10G U11G C12G | 1.27
U7C U8G G9A U10G U11G C12U | 1.36
U7C U8G G9A U10C U11C C12A C13A | 1.03
U7C U8G G9A U10C U11C C12A C13G | 1.04
U7C U8G G9A U10C U11C C12A C13U | 1.06

Variant | aptazyme ON/OFF ratio
U7C U8G G9A U10G U11A C12G C13U | 1.42
U7C U8G G9A U10G U11A C12G C13G | 1.24
U7C U8G G9A U10G U11A C12G C13A | 1.26
U7C U8G G9A U10G C12A | 1.37
U7C U8G G9A U10G C12G | 1.34
U7C U8G G9A U10G C12U | 1.37
U7C U8G G9C C12G C13A | 1.27
U7C U8G G9C C12G C13U | 1.18
U7C U8G G9C C12G C13G | 1.12
U7C U8G G9A U11C C12A C13G | 1.12
U7C U8G G9A U11C C12A C13U | 1.14
U7C U8G G9A U11C C12A C13A | 1.1
U7C U8G G9A U11A C12G | 1.11
U7C U8G G9A U11A C12U | 1.26
U7C U8G G9A U11A C12A | 1.29
U7C U8G G9A U10G C12A C13U | 1.36
U7C U8G G9A U10G C12A C13A | 1.12
U7C U8G G9A U10G C12A C13G | 1.08
U7C U8G G9A U10G U11G C13U | 1.19
U7C U8G G9A U10G U11G C13G | 1.39
U7C U8G G9A U10G U11G C13A | 1.2
U7C U8G G9A U10G U11A C12U C13U | 1.32
U7C U8G G9A U10G U11A C12U C13G | 1.36
U7C U8G G9A U10G U11A C12U C13A | 1.46

Variant | aptazyme ON/OFF ratio
U7C U8G G9A U10G U11C C12G | 1.29
U7C U8G G9A U10G U11C C12U | 1.14
U7C U8G G9A U10G U11C C12A | 1.41
U7C U8G G9A U10C U11A C12G C13A | 1.07
U7C U8G G9A U10C U11A C12G C13U | 1.11
U7C U8G G9A U10C U11A C12G C13G | 1.09
U7C U8G G9A U10G U11C C12U C13G | 1.25
U7C U8G G9A U10G U11C C12U C13A | 1.34
U7C U8G G9A U10G U11C C12U C13U | 1.29
U7C U8G G9A U10G C12G C13A | 1.25
U7C U8G G9A U10G C12G C13G | 1.1
U7C U8G G9A U10G C12G C13U | 1.17
U7C U8G G9A U10C U11C C12U | 1.01
U7C U8G G9A U10C U11C C12G | 1.03
U7C U8G G9A U10C U11C C12A | 1.05
U7C U8G G9C | 1.08
U7C U8G G9A U10C U11A C12U | 1.09
U7C U8G G9A U10C U11A C12G | 1.13
U7C U8G G9A U10C U11A C12U C13G | 1.05
U7C U8G G9A U10C U11A C12U C13U | 1.05
U7C U8G G9A U10C U11A C12U C13A | 1.07
U7C U8G G9A U10C U11C C12G C13G | 1.14
U7C U8G G9A U10C U11C C12G C13U | 1.07
U7C U8G G9A U10C U11C C12G C13A | 1.13

Variant | aptazyme ON/OFF ratio
U7C U8G G9A U10C U11G C12A | 1.07
U7C U8G G9A U10C U11G C12U | 1.29
U7C U8G G9A U10C U11G C12G | 1.22
U7C U8G G9A U11A C12A C13A | 1.3
U7C U8G G9A U11A C12A C13U | 1.24
U7C U8G G9A U11A C12A C13G | 1.15
U7C U8G G9A U11A C12G C13A | 1.12
U7C U8G G9A U11A C12G C13G | 1.11
U7C U8G G9A U11A C12G C13U | 1.08
U7C U8G G9A U10C U11G | 1.23
U7C U8G G9A U10C U11C | 1.03
U7C U8G G9A U11G C12A C13A | 1.17
U7C U8G G9A U11G C12A C13U | 1.19
U7C U8G G9A U11G C12A C13G | 1.17
U7C U8G G9A U10G U11A C13U | 1.04
U7C U8G G9A U10G U11A C13A | 1.09
U7C U8G G9A U10G U11A C13G | 1.1
U7C U8G G9A U10C U11A C12A C13U | 1.07
U7C U8G G9A U10C U11A C12A C13G | 1.08
U7C U8G G9A U11G C12G | 1.23
U7C U8G G9A U11G C12A | 1.09
U7C U8G G9A U11G C12U | 1.26
U7C U8G G9A U10G U11C C12A C13A | 1.35
U7C U8G G9A U10G U11C C12A C13G | 1.1

Variant | aptazyme ON/OFF ratio
U7C U8G G9A U10G U11C C12A C13U | 1.25
U7C U8G G9A U10C U11G C12U C13A | 1.26
U7C U8G G9A U10C U11G C12U C13U | 1.28
U7C U8G G9A U10C U11G C12U C13G | 1.14
U7C U8G G9A U10G C12U C13A | 1.46
U7C U8G G9A U10G C12U C13U | 1.26
U7C U8G G9A U10G C12U C13G | 1.19
U7C U8G G9A U10G U11G C12U C13U | 1.22
U7C U8G G9A U10G U11G C12U C13A | 1.42
U7C U8G G9A U10G U11G C12U C13G | 1.25
U7C U8G G9A U10G U11C C13U | 1.03
U7C U8G G9A U10G U11C C13G | 1.04
U7C U8G G9A U10G U11C C13A | 1.11
U7C U8G G9A U10G U11G | 1.42
U7C U8G G9A U10G U11A | 1.05
U7C U8G G9A U10G U11C | 1.06
U7C U8G G9A U10G U11A C12U | 1.16
U7C U8G G9A U10G U11A C12A | 1.47
U7C U8G G9A U10G U11A C12G | 1.24
U7C U8G G9A U10C U11A C13G | 1.07
U7C U8G G9A U10C U11A C13U | 1.09
U7C U8G G9A U10C U11A C13A | 1.12
U7C U8G G9A U11A C13G | 1.07
U7C U8G G9A U11A C13U | 1.19

Variant | aptazyme ON/OFF ratio
U7C U8G G9A U11A C13A | 1.2
U7C U8G G9A U10C U11G C13G | 1.12
U7C U8G G9A U10C U11G C13A | 1.28
U7C U8G G9A U10C U11G C13U | 1.41
U7C U8G G9A U10G U11C C12G C13G | 1.41
U7C U8G G9A U10G U11C C12G C13U | 1.19
U7C U8G G9A U10G U11C C12G C13A | 1.2
U7C U8G G9A U10C U11C C12U C13A | 1.02
U7C U8G G9A U10C U11C C12U C13U | 1.02
U7C U8G G9A U10C U11C C12U C13G | 1.01
U7C U8G G9A U10C U11G C12G C13G | 1.27
U7C U8G G9A U10C U11G C12G C13U | 1.09
U7C U8G G9A U10C U11G C12G C13A | 1.23
U7C U8G G9A U11C C12U | 1.11
U7C U8G G9A U11C C12G | 1.11
U7C U8G G9A U11C C12A | 1.1
U7C U8G G9A U11G C13A | 1.21
U7C U8G G9A U11G C13U | 1.13
U7C U8G G9A U11G C13G | 1.03
U7C U8G G9A U10G C13U | 1.54
U7C U8G G9A U10G C13G | 1.16
U7C U8G G9A U10G C13A | 1.23
U7C U8G G9C C12A | 1.58
U7C U8G G9C C12U | 1.11

Variant | aptazyme ON/OFF ratio
U7C U8G G9C C12G | 1.28
U7C U8G G9A U10C U11C C13G | 1.01
U7C U8G G9A U10C U11C C13A | 1.02
U7C U8G G9A U10C U11C C13U | 1.02
U7C U8G G9A U11G C12U C13G | 1.29
U7C U8G G9A U11G C12U C13A | 1.27
U7C U8G G9A U11G C12U C13U | 1.27
U7C U8G G9A U11G | 1.18
U7C U8G G9A U11C | 1.04
U7C U8G G9A U11A | 1.18
U7C U8G G9C C12A C13U | 1.31
U7C U8G G9C C12A C13G | 1.09
U7C U8G G9C C12A C13A | 1.21
U7C U8G G9A U11C C13U | 1.05
U7C U8G G9A U11C C13G | 1.02
U7C U8G G9A U11C C13A | 1.04
U7C U8G G9A U11A C12U C13U | 1.15
U7C U8G G9A U11A C12U C13A | 1.19
U7C U8G G9A U11A C12U C13G | 1.17
U7C U8G G9A U10G | 2.11
U7C U8G G9A U11C C12U C13U | 1.09
U7C U8G G9A U11C C12U C13A | 1.09
U7C U8G G9A U11C C12U C13G | 1.15
